Laboratory results as given in US20230322893A1, “CD47 BINDER AND LIPOSOME COMPLEX FOR CANCER TREATMENT” (priority 2020, published 2023).

B1: SV4: binder of SEQ ID NO: 2; SV1 with lysines at the 11th and 104th positions substituted with leucine (protein)
chain: MEEELQIIQPDLSVSVAAGESAILHCTITSLFPVGPIQWFRGAGPARVLIYNQRQGPFPRVTTVSETTKRENMDFSISISNITPADAGTYYCIKFRKGSPDTEFLSGAGTELSVRAKPS
modifications: CD47 binder SV4
B2: SV4-DSPE: DSPE-conjugated form of SV4 (NHS-activated DSPE-PEG2000 with SV4 protein) (conjugate)
chain: B1 chain
B3: hdNT-1: Human cytosolic 5′deoxyribonucleotidase (protein, UniProt Q8TCD5 1-201, looked up)
5'(3')-deoxyribonucleotidase, …: MARSVRVLVDMDGVLADFEAGLLRGFRRRFPEEPHVPLEQRRGFLAREQYRALRPDLADKVASVYEAPGFFLDLEPIPGALDAVREMNDLPDTQVFICTSPLLKYHHCVGEKYRWVEQHLGPQFVERIILTRDKTVVLGDLLIDDKDTVRGQEETPSWEHILFTCCHNRHLVLPPTRRRLLSWSDNWREILDSKRGAAQRE
B4: mdNT-1: Murine cytosolic 5′deoxyribnucleotidase (protein, UniProt Q9JM14 1-200, looked up)
5'(3')-deoxyribonucleotidase, …: MAVKRPVRVLVDMDGVLADFESGLLQGFRRRFPEEPHVPLEQRRGFLANEQYGALRPDLAEKVASVYESPGFFLNLEPIPGALDALREMNDMKDTEVFICTTPLLKYDHCVGEKYRWVEQNLGPEFVERIILTRDKTVVMGDLLIDDKDNIQGLEETPSWEHILFTCCHNQHLALPPTRRRLLSWSDNWRGIIESKRASL
B5: T001: Thymidylate 5′-phosphohydrolase derived from bacteriophage PBS2, gene sequence optimized (SEQ ID NO: 3); final drug form mRNA (protein)
chain: MVFSIKEPFSIVTDCDEVLTDISPLWVHKIQQNADYFGKYFDLSKLEGLEFGTFEHYQTVLSRPEFHLNKWLRKENLVLSDEEEKELFERFYSLYDNDEFYEDCMPTKMCEGIYKLSLQKFVDKIYVVTRTSEGTKEGKRKFIETFLNSNKVEIIFVGKNEKKSDYIKNLKNVKMIVEDELSNINDIVENCNDGFEEVDTYIPSTGYNNKDIDGFNENLMKKGFNAVPYVIIERPETEEKAV
modifications: T001
notes: final drug form mRNA
B6: NT5M (hdNT-2): human mitochondrial 5′-nucleotidase (SEQ ID NO: 32) (protein)
chain: MGGRALRVLVDMDGVLADFEGGFLRKFRARFPDQPFIALEDRRGFWVSEQYGRLRPGLSEKAISIWESKNFFFELEPLPGAVEAVKEMASLQNTDVFICTSPIKMFKYCPYEKYAWVEKYFGPDFLEQIVLTRDKTVVSADLLIDDRPDITGAEPTPSWEHVLFTACHNQHLQLQPPRRRLHSWADDWKAILDSKRPC
modifications: NT5M

How the values were obtained:
recombinant CD47 protein = recombinant CD47 protein (Homo sapiens, UniProt Q08722); assay: SPR, CD47 conjugated to CM5 chip by EDC-NHS; assay type: binding
Procedure: Specifically, the recombinant CD47 protein was conjugated to the surface of the CM5 chip by a target SPR reaction of 250 RU through an EDC-NHS reaction to be used, and for HBS-P, the sensogram obtained through a process of association for 3 minutes and dissociation for 10 minutes at a flow rate of 30 µL/minutes was analyzed with the BiaEvaluation software using a 1:1 binding model and global fitting.

dTMP [1] = details: read-out: Preferred Substrate (Km), dTMP; cited from earlier work
dAMP = details: read-out: Preferred Substrate (Km), dAMP; cited from earlier work
dGMP = details: read-out: Preferred Substrate (Km), dGMP; cited from earlier work
dUMP = details: read-out: Preferred Substrate (Km), dUMP; cited from earlier work
[2] = system: colon cancer cell line HCT-116; assay: Trypan blue assay, cell viability and cell growth inhibition; assay type: cell-based; details: HCT-116, 1.25 µg mRNA, 24 hours
Procedure: T001 is more specific to the nucleic acid T due to its structural difference from NT5M. Therefore, nucleic acid imbalance due to the loss of dTTP rather than the overall loss of nucleic acid may have a greater effect on cancer cell metabolism and thereby inhibit the growth of cancer cells. […] Each mRNA was transfected into the colon cancer cell line HCT-116, and 24 hours thereafter, Trypan blue assay was performed and the results of cell viability and cell growth inhibition on HCT-116 are shown in FIG. 13. The specific experimental method is as follows.
HCT-116 cells were transfected with 1.25 µg each of non-mature form NT5M, mature form NT5M, and CT mRNA. After 24 hours, the resultants were each treated with trypsin and the cells were harvested using a centrifuge. After resuspending the harvested cells with 1× DPBS, a certain amount of cells were mixed with trypan blue reagent at a 1:1 ratio. After incubation for 2 minutes at room temperature (RT), the number of cells was counted using a hemocytometer. After obtaining the number of cells stained and unstained with the trypan blue reagent, the number of viable and non-viable cells was obtained, and then divided by the total number of cells to obtain the viability. Each experiment was repeated three or more times to evaluate the significance.

dTMP [3] = assay: 5′-nucleotidase preferred substrate Km, dTMP; assay type: biochemical; details: according to Table 4
[4] = CM5 chip, CD47 250 RU, 30 µL/minutes

recombinant CD47 protein, sequence (Q08722 19-323): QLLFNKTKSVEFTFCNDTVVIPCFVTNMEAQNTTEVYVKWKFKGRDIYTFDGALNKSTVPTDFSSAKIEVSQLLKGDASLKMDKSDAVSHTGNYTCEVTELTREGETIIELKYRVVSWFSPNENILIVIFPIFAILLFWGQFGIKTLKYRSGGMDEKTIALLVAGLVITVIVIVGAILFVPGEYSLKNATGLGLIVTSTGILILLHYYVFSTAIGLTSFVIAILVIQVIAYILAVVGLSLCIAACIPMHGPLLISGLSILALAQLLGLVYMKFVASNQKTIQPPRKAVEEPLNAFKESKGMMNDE

Row | Molecule | binding activity when conjugated with DSPE and when inserted into liposomes (recombinant CD47 protein) | ka (recombinant CD47 protein; [4]) | kd (recombinant CD47 protein; [4]) | Km (dTMP [1]) | Km (dAMP) | Km (dGMP) | Km (dUMP) | effect on cells (cell viability and cell growth inhibition) [2] | affinity for dTMP lower than T001 (dTMP [3])
1 | B1 | maintained within the error range | 164000 M⁻¹ s⁻¹ | 0.000275 s⁻¹ | – | – | – | – | – | –
2 | B2 | – | – | 0.000256 s⁻¹ | – | – | – | – | – | –
3 | B3 | – | – | – | 1500 µM | 3000 µM | 3300 µM | 1500 µM | – | –
4 | B4 | – | – | – | 1400 µM | 1000 µM | 1200 µM | 800 µM | – | –
5 | B5 | – | – | – | 10 µM | – | 700 µM | 800 µM | greater than that of human NT5M | –
6 | B6 | – | – | – | 300 µM | – | 90 µM | 160 µM | – | 30 times
